The record followed here is article PMC1513511.

A word on the Kd: it is a measure of binding affinity in units of concentration. Read a high Kd as lower affinity.

For data set [1], the target named is T1, H6MobC221 (pC221 MobC) (plasmid pC221, UniProt Q6V0Y1 1-132).
T1 sequence: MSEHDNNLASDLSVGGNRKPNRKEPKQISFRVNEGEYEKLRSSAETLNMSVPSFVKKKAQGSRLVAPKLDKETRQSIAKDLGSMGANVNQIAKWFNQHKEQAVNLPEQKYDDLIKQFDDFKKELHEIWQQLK
Kind of data set: SPR. On the technique in general: In SPR one partner is held on a chip, and binding of the other changes the refractive index at the surface.

Data set [2] concerns the target T1, H6MobC221 (pC221 MobC). Kind of data set: SPR. This is another data set of the same source.

B1: 21P (mcb2 oligoduplex) (dsDNA)
DNA 1: AACGAAGTGGCTAGAATATA
DNA 2: TATATTCTAGCCACTTCGTT
Turning to B1, in the data set with H6MobC221 (pC221 MobC) [1], the Kd was ~1800 nM.

B2: 21Pmut (randomized mcb2 oligoduplex) (dsDNA)
DNA 1: AACGAGAGTAGGTCAATATA
DNA 2: TATATTGACCTACTCTCGTT
B2: the binding result in the data set with H6MobC221 (pC221 MobC) [2] is “no binding”.
